± gives the uncertainty stated by the source.
Assay: self-splicing fitness, log relative to wild type (ln ratio); higher = more splicing; Tetrahymena group I intron in knt gene, E. coli kanamycin selection, DiMSum; sequences stand for … in CUCUCU…GGAGGGAAAAGUUAUCAGGCAUGCACCUGGUAGCUAGUCUUUAAACCAAUAGAUUGCAUCGGUUUAAAAGGCAAGACCGUCAAAUUGCGGGAAAGGGGUCAACAGCCGUUCAGUACCAAGUCUCAGGGGAAACUUUGAGAUGGCCUUGCAAAGGGUAUGGUAAUAAGCUGACGGACAUGGUCCUAACCACGCAGCCAAGUCCUAAGUCAACAGAUCUUCUGUUGAUAUGGAUGCAGUUCACAGACUAAAUGUCGGUCGGGGAAGAUGUAUUCUUCUCAUAAGAUAUAGUCGGACCUCUCCUUAAUGGGAGCUAGCGGAUGAAGUGAUGCAACACUGGAGCCGCUGGGAACUAAUUUGUAUGCGAAAGUAUAUUGAUUAGUUUUGGAGUACUCGUGGUCG
Outline: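 Pooled colonies went to amplicon sequencing on an Illumina HiSeq 2500 after six replicate transformations. The plates were LB agar with 100 μg/mL carbenicillin, 50 μM IPTG and 0.2% rhamnose, with or without 25 μg/mL kanamycin, incubated overnight at 37°C or 30°C. The E. coli BL21(DE3) library had all eight P1ex-region intron nucleotides randomised, the intron placed in the knt kanamycin-resistance gene on pET-22b(+). DiMSum fitness is the error-weighted combination of replicate fold changes, kanamycin against none, normalised to wild type.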

Sequence | self-splicing fitness (ln) (30 °C) | self-splicing fitness (ln) (37 °C)
AUUGAGCAAUAUUACGAUUU | -1.11 ± 0.09 | -0.383 ± 0.11
AAAAAGCAAUAUUACGUCGG | -1.36 ± 0.082 | -1.39 ± 0.1
AAGUAGCAAUAUUACGACAA | -0.505 ± 0.073 | 0.0804 ± 0.084
UGAGAGCAAUAUUACGACGU | -2.66 ± 0.19 | -1.78 ± 0.24
AUGUAGCAAUAUUACGCAUC | -3.66 ± 0.27 | -2.51 ± 0.45
AACUAGCAAUAUUACGUGUC | -4.26 ± 0.19 | -1.25 ± 0.1
CAAAAGCAAUAUUACGGAGC | -2.95 ± 0.18 | -2.84 ± 0.25
AUAUAGCAAUAUUACGUAAA | -2.17 ± 0.21 | -1.56 ± 0.29
GGGAAGCAAUAUUACGAAUG |  | -0.92 ± 0.34
UCCCAGCAAUAUUACGUGCU | -3.59 ± 0.2 | -2.92 ± 0.19
UAAAAGCAAUAUUACGUCAG | -1.56 ± 0.074 | -0.962 ± 0.097
CCAGAGCAAUAUUACGUUGG | -3.93 ± 0.23 | -2.57 ± 0.23
AUUGAGCAAUAUUACGGGAC | -3.28 ± 0.42 | 
AAUCAGCAAUAUUACGCCGU | -0.744 ± 0.085 | -0.531 ± 0.099
UGGUAGCAAUAUUACGGUAA | -1.34 ± 0.18 | -0.209 ± 0.12
GGGUAGCAAUAUUACGACCG | -1.03 ± 0.18 | -0.642 ± 0.33
AAUUAGCAAUAUUACGCCGG | -2.62 ± 0.34 | -0.87 ± 0.4
UGCCAGCAAUAUUACGCAGU | -4.11 ± 0.24 | -2.41 ± 0.2
ACGAAGCAAUAUUACGGUUG | -2.29 ± 0.07 | -1.31 ± 0.081

Sequence | self-splicing fitness (ln) (30 °C) | self-splicing fitness (ln) (37 °C)
CUAUAGCAAUAUUACGACUU | -2.98 ± 0.3 | -1.54 ± 0.34
AUAUAGCAAUAUUACGGCAG | -1.74 ± 0.16 | -1.79 ± 0.19
UAUCAGCAAUAUUACGUAGU | -1.87 ± 0.086 | -1.19 ± 0.08
GCUCAGCAAUAUUACGAUUC | -0.0882 ± 0.054 | 0.832 ± 0.075
CUCGAGCAAUAUUACGAGGA | -1.94 ± 0.26 | 
AGCAAGCAAUAUUACGGCCU | -0.383 ± 0.094 | 0.167 ± 0.13
UGCCAGCAAUAUUACGAACA | -0.458 ± 0.14 | 0.334 ± 0.17
UCCCAGCAAUAUUACGCCAU | -3.09 ± 0.18 | -2.83 ± 0.38
UUCAAGCAAUAUUACGGCCA | -1.31 ± 0.13 | -0.977 ± 0.13
ACGGAGCAAUAUUACGAUCG | -0.961 ± 0.088 | -1.14 ± 0.14
CGUGAGCAAUAUUACGCAUA | -3.2 ± 0.28 | -1.18 ± 0.34
CACGAGCAAUAUUACGCGAU | -3.23 ± 0.21 | -2.51 ± 0.41
CAACAGCAAUAUUACGGAGU | -3.71 ± 0.17 | -1.22 ± 0.12
UCUAAGCAAUAUUACGGCUG | -0.983 ± 0.21 | -1.68 ± 0.24
CCAUAGCAAUAUUACGGUAG | -2.01 ± 0.1 | -0.787 ± 0.11
AACCAGCAAUAUUACGUUCG | -2.59 ± 0.15 | -1.63 ± 0.13
GCUCAGCAAUAUUACGGCUG | -2.99 ± 0.29 | -2.1 ± 0.34
GUAAAGCAAUAUUACGGUGU | -1.5 ± 0.056 | -0.647 ± 0.07
UGGUAGCAAUAUUACGUUGG | -1.4 ± 0.12 | -1.7 ± 0.14

— the supplement of paper PMC7877785
